Measured values reported in US11584938B2, “Plant EPSPS mutant containing L195P and S247G mutations and encoding gene and use thereof” (GEVOTO LLC, priority 2017, dated 2023).
Residue numbers refer to the chain shown, from its start.

Test system: double knockout E. coli (EPSPS defective E. coli, EDCE)
Assay: growth of EPSPS defective E. coli transformed by the EPSPS gene in M9 culture media containing different glyphosate concentrations
Type: cell-based, E. coli DH5α
Conditions: for EPSPS enzyme activity: concluded from growth of defective E. coli at 0 mM glyphosate
Excerpt: A method for detecting the glyphosate resistance of the soybean EPSPS mutant G1 provided in Example 1 and the soybean EPSPS mutant G3 provided in Example 2 is as follows:
according to the sequence of the nucleic acid molecule provided in the example, synthesizing the encoding gene that encodes the soybean EPSPS mutant G1 or G3 using a chemical synthesis method, introducing enzyme sites (Pac1 and Sbf1) at two ends thereof, connecting to an expression vector (for example, a pADV5 vector, the structure of which is as shown in FIG. 15) that has undergone the same restriction enzyme digestion treatment under the action of ligase after restriction enzyme digestion, then transforming double knockout E. coli, picking positive colonies after verification, inoculating the positive colonies to M9 culture media containing different glyphosate concentrations for growth, and observing the growth situation of the E. coli.
The wild-type soybean EPSPS (with an amino acid sequence represented by SEQ ID NO: 2 and an encoding gene sequence represented by SEQ ID NO: 1) and the soybean EPSPS mutant G2 (with an amino acid sequence represented by SEQ ID NO: 6, and a corresponding encoding gene sequence represented by SEQ ID NO: 5) merely containing the mutation P114(101)S were taken as controls.
In the above, the M9 basal culture medium can be prepared by the following method:
5×M9 salt solution: 6.78 g of Na2HPO4, 3.0 g of KH2PO4, 0.5 g of NaCl, and 1.0 g of NH4Cl were weighed, added with ddH2O to 200 ml, and subjected to high-temperature and high-pressure sterilization treatment;
20% glucose: 20 g of glucose was weighed, added with 80 ml of ddH2O for dissolving, diluted to 100 ml, and subjected to filtration and sterilization treatment;
1.0 M MgSO4: 24.6 g of MgSO4-7H2O was weighed, dissolved with 80 ml of ddH2O, diluted to 100 ml, and subjected to sterilization treatment;
1.0 M CaCl2: 11.1 g of CaCl2 was weighed, dissolved with 80 ml of ddH2O, diluted to 100 ml, and subjected to sterilization treatment; and
1000 ml of the M9 basal culture media were prepared by adding ddH2O to 200 ml of 5×M9 salt solution, 20 ml of 20% glucose, 2 ml of 1.0 M MgSO4 and 0.1 ml of 1.0 M CaCl2 to make up to 1000 ml.
In the above, the E. coli used was double knockout E. coli, namely, EPSPS defective E. coli (E. coli DH5α with EPSPS gene and C-P Lyase gene being knocked out, named as EDCE, wherein for a preparation method thereof, reference can be made to a Chinese invention patent with the filing number CN2016103256926).
The glyphosate resistance of the soybean EPSPS mutant G4 provided in Example 3 and the soybean EPSPS mutant G5 provided in Example 4 was verified with reference to the detection method in Experiment Example 1.
The wild-type wheat EPSPS (with an amino acid sequence represented by SEQ ID NO: 14, and a corresponding encoding gene sequence represented by SEQ ID NO: 13) and the wheat EPSPS mutant T2 (with an amino acid sequence represented by SEQ ID NO: 18, and a corresponding encoding gene sequence represented by SEQ ID NO: 17) merely containing the mutation P118(101)S were taken as controls to verify the glyphosate resistance of the wheat EPSPS mutants T1 and T3 provided in Example 5 and Example 6, and reference can be made to Experiment Example 1 for the method.
A method for verifying the glyphosate resistance of the wheat EPSPS mutants T4, T5, and T6 provided in Examples 7-9 is the same as that in Experiment Example 3.
The wild-type rice EPSPS R0 (with an amino acid sequence represented by SEQ ID NO: 28, and a corresponding encoding gene sequence represented by SEQ ID NO: 27) and the rice EPSPS mutant R2 (with an amino acid sequence represented by SEQ ID NO: 32, and a corresponding encoding gene sequence represented by SEQ ID NO: 31) merely containing the mutation P116(101)S were taken as controls to verify the glyphosate resistance of the rice EPSPS mutants R1 and R3 provided in Examples 10 and 11, and reference can be made to Experiment Example 1 for the method. […]

[1] = culture media containing 0 mM glyphosate
[2] = culture media containing 1 mM glyphosate
[3] = culture media containing 5 mM glyphosate
[4] = culture media containing 10 mM glyphosate
[5] = culture media containing 20 mM glyphosate

B1: T0: wild-type wheat EPSPS, amino acid sequence SEQ ID NO: 14; control (protein, listed as Triticum aestivum)
chain: MATSVAAPAAPAGAEEVVLQPIREISGAVQLPGSKSLSNRILLLSALSEGTTVVDNLLNSEDVHYMLEALEALGLSVEADKVAKRAVVVGCGGRFPVEKDAKEEVKLFLGNAGTAMRPLTAAVVAAGGNATYVLDGVPRMRERPIGDLVVGLQQLGADVDCFLGTNCPPVRINGKGGLPGGKVKLSGSISSQYLSSLLMAAPLALEDVEIEIIDKLISVPYVEMTLKLMEHFGVTAEHSDSWDRFYIKGGQKYKSPGNAYVEGDASSASYFLAGAAITGGTVTVEGCGTTSLQGDVKFAEVLEMMGAKVTWTDTSVTVTGPPRQPFGRKHLKAVDVNMNKMPDVAMTLAVVALFADGPTAIRDVASWRVKETERMVAIRTELTKLGATVEEGPDYCIITPPEKLNITAIDTYDDHRMAMAFSLAACAEVPVTIRDPGCTRKTFPNYFDVLSTFVKN
[1]
  growth of the E. coli transformed by the EPSPS: could grow
[2]
  growth of the E. coli transformed by the EPSPS: substantially could not grow

B2: T1: wheat EPSPS mutant, SEQ ID NO: 16, mutation S269(247)G (protein)
chain: B1 chain with S269G
  glyphosate resistance (overall statement): have glyphosate resistance
[1]
  growth of the E. coli transformed by the EPSPS: could grow
[2]
  growth of the E. coli transformed by the EPSPS: could grow normally
  growth of the transformed E. coli compared with E. coli transformed by the control EPSPS named in the value: obviously superior to that of the E. coli transformed by T0
[3]
  growth of the E. coli transformed by the EPSPS: did not grow obviously

B3: T4: wheat EPSPS mutant, SEQ ID NO: 22, mutation L216(195)P (protein)
chain: B1 chain with L216P
  EPSPS enzyme activity: normal EPSPS enzyme activity
[1]
  growth of the E. coli transformed by the EPSPS: could grow
[2]
  growth of the E. coli transformed by the EPSPS: could grow normally
[3]
  growth of the E. coli transformed by the EPSPS: did not grow obviously

B4: T3: wheat EPSPS mutant, SEQ ID NO: 20, mutations S269(247)G and P118(101)S (protein)
chain: B1 chain with P118S, S269G
  glyphosate resistance (overall statement): have glyphosate resistance
[1]
  growth of the E. coli transformed by the EPSPS: could grow
[2]
  growth of the E. coli transformed by the EPSPS: could grow normally
[4]
  growth of the E. coli transformed by the EPSPS: could grow
  growth of the transformed E. coli compared with E. coli transformed by the control EPSPS named in the value: obviously superior to that of the E. coli transformed by T2

B5: T2: wheat EPSPS mutant, SEQ ID NO: 18, merely containing the mutation P118(101)S; control (protein)
chain: B1 chain with P118S
[1]
  growth of the E. coli transformed by the EPSPS: could grow
[2]
  growth of the E. coli transformed by the EPSPS: could grow normally
[3]
  growth of the E. coli transformed by the EPSPS: could grow
[4]
  growth of the E. coli transformed by the EPSPS: could grow
[5]
  growth of the E. coli transformed by the EPSPS: could grow

B6: T5: wheat EPSPS mutant, SEQ ID NO: 24, mutations L216(195)P and S269(247)G (protein)
chain: B1 chain with L216P, S269G
  EPSPS enzyme activity: normal EPSPS enzyme activity
[1]
  growth of the E. coli transformed by the EPSPS: could grow
[2]
  growth of the E. coli transformed by the EPSPS: could grow normally
[3]
  growth of the E. coli transformed by the EPSPS: grew obviously

B7: G0: wild-type soybean EPSPS, amino acid sequence SEQ ID NO: 2; control (protein)
chain: MAAAEKPSTAPEIVLEPIKDISGTITLPGSKSLSNRILLLAALSEGTTVVDNLLYSEDIHYMLGALRTLGLRVEDDQTTKQAIVEGCGGLFPTIKESKDEINLFLGNAGTAMRPLTAAVVAAGGNASYVLDGVPRMRERPIGDLVAGLKQLGADVDCFLGTNCPPVRVNGKGGLPGGKVKLSGSVSSQYLTALLMAAPLALGDVEIEIVDKLISVPYVEMTLKLMERFGVSVEHSGDWDKFLVHGGQKYKSPGNAFVEGDASSASYFLAGAAVTGGTITVNGCGTSSLQGDVKFAEVLEKMGAKVTWSENSVTVTGPPQDSSGQKVLQGIDVNMNKMPDVAMTLAVVALFANGQTTIRDVASWRVKETERMIAICTELRKLGATVEEGPDYCVITPPEKLNVTAIDTYDDHRMAMAFSLAACGDVPVTIKDPGCTRKTFPDYFEVLERFTRH
modifications: Glycine max
notes: control
[1]
  growth of the E. coli transformed by the EPSPS: could grow
[2]
  growth of the E. coli transformed by the EPSPS: substantially could not grow
[3]
  growth of the E. coli transformed by the EPSPS: substantially could not grow

B8: G3: soybean EPSPS mutant, SEQ ID NO: 8, mutations L212(195)P and P114(101)S (protein)
chain: B7 chain with P114S, L212P
[1]
  growth of the E. coli transformed by the EPSPS: could grow
[5]
  growth of the E. coli transformed by the EPSPS: could grow
  growth of the transformed E. coli compared with E. coli transformed by the control EPSPS named in the value: superior to that of the E. coli transformed by the soybean EPSPS mutant G2

B9: G4: soybean EPSPS mutant, SEQ ID NO: 10, mutation S265(247)G (protein)
chain: B7 chain with S265G
[1]
  growth of the E. coli transformed by the EPSPS: could grow
[3]
  growth of the transformed E. coli compared with E. coli transformed by the control EPSPS named in the value: superior to that of the E. coli transformed by G0

B10: G5: soybean EPSPS mutant, SEQ ID NO: 12, mutations S265(247)G and P114(101)S (protein)
chain: B7 chain with P114S, S265G
[1]
  growth of the E. coli transformed by the EPSPS: could grow
[4]
  growth of the E. coli transformed by the EPSPS: could grow
  growth of the transformed E. coli compared with E. coli transformed by the control EPSPS named in the value: obviously superior to that of the E. coli transformed by G2

B11: G1: soybean EPSPS mutant, SEQ ID NO: 4, mutation L212(195)P (protein)
chain: B7 chain with L212P
[1]
  growth of the E. coli transformed by the EPSPS: could grow
[2]
  growth of the transformed E. coli compared with E. coli transformed by the control EPSPS named in the value: obviously superior to that of the E. coli transformed by G0

B12: G2: soybean EPSPS mutant, SEQ ID NO: 6, merely containing the mutation P114(101)S; control (protein)
chain: B7 chain with P114S
[1]
  growth of the E. coli transformed by the EPSPS: could grow
[4]
  growth of the E. coli transformed by the EPSPS: could grow
[5]
  growth of the E. coli transformed by the EPSPS: could grow
